Columns and labels:
MORC2 aspartate mutant = biological target: T1, MORC2 aspartate mutant (Homo sapiens, UniProt Q9Y6X9 1-1032, K704D;R707D;K713D;K716D;K721D;K722D;R754D;R755D;K756D;R758D;K760D;R761D); assay: fluorescence anisotropy; apo; FA/EMSA: 50 mM NaCl, 3 mM MgCl2, 20 mM Na-HEPES pH 7.4, 1 mM TCEP, 10% glycerol, 0.025 mM ZnCl2, 50 ug/ml BSA, room temperature; 1 nM nucleic acid (FA) or 20 nM DNA (EMSA); conditions: protein: recombinant; tags: tag removed by TEV; chain copies: 2; label: 5'-6-FAM; blunt
T1 sequence: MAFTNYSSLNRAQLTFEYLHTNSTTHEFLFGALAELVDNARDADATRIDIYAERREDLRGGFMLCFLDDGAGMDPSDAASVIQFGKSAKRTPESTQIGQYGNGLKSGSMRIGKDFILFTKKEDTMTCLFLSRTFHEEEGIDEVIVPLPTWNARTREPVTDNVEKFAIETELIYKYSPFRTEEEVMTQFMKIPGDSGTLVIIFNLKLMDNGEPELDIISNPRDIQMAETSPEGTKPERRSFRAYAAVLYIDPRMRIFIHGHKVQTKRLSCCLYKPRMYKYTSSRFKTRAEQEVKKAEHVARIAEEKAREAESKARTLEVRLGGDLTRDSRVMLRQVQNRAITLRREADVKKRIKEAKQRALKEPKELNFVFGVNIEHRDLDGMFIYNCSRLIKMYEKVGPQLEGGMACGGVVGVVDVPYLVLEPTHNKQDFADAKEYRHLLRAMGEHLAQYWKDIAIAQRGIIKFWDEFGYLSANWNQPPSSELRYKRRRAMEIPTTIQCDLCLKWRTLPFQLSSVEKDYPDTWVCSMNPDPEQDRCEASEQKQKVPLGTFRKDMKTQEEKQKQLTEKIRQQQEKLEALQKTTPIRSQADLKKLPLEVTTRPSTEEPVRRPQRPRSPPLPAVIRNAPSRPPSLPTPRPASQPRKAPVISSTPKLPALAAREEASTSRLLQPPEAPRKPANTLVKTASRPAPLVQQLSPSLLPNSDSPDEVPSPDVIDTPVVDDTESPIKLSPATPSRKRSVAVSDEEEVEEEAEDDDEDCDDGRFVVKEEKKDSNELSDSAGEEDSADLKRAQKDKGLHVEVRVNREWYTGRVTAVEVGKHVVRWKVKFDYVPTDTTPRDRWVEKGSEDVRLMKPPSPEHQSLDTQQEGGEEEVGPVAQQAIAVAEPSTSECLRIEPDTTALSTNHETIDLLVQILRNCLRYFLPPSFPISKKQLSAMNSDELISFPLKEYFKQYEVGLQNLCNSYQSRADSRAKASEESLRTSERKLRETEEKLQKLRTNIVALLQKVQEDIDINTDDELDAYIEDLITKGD

MORC2 alanine mutant = biological target: T2, MORC2 alanine mutant (Homo sapiens, UniProt Q9Y6X9 1-1032, K704A;R707A;K713A;K716A;K721A;K722A;R754A;R755A;K756A;R758A;K760A;R761A); assay: as above; conditions: protein: recombinant; tags: tag removed by TEV; chain copies: 2; label: 5'-6-FAM; blunt
T2 sequence: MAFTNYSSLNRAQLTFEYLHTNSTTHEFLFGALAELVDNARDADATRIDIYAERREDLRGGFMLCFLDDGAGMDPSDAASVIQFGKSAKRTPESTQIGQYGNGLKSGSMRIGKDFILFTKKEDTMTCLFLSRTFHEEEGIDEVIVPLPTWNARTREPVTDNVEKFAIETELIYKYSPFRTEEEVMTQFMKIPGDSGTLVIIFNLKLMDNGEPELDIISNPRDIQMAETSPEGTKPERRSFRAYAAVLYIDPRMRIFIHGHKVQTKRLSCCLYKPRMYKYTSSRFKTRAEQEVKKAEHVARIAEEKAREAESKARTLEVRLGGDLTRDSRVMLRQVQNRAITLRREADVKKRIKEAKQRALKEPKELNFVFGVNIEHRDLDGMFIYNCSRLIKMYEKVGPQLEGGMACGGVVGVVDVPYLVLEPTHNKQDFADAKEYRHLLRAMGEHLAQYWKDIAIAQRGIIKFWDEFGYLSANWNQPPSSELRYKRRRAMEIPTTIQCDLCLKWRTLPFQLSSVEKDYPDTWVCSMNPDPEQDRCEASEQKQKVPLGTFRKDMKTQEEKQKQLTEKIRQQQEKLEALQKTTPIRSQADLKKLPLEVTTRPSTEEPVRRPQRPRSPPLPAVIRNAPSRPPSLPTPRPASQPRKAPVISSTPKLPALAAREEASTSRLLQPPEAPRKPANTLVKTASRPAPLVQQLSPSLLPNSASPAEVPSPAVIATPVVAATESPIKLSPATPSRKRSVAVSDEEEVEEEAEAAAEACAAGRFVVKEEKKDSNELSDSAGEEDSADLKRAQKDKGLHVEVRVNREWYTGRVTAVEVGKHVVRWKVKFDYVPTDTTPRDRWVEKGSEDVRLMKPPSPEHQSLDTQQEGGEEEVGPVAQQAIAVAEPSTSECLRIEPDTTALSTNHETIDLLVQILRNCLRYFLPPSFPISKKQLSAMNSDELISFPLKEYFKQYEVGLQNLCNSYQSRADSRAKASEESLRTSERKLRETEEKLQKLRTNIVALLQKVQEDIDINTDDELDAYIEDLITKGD

B1: Random 35mer dsDNA (dsDNA)
DNA 1: ATAGGGTCCATCAGAATTCGGATGAACTCGGTGTG
DNA 2: CACACCGAGTTCATCCGAATTCTGATGGACCCTAT
**Q.** What does the source list for B1?
**A.** Kd (MORC2 aspartate mutant): 380 ± 120 nM; Kd (MORC2 alanine mutant): 350 ± 60 nM

Reference: publication PMC11879086, “Identification and characterization of a human MORC2 DNA binding region that is required for gene silencing” (Nucleic Acids Research, 2024)
